Where a chain is given by its changes, count along the chain named.
Legend:
hDus2 full length [1] = target: T1, hDus2 full length (Homo sapiens, UniProt Q9NX74 1-493); experiment: EMSA; same affinity as for full tRNA; value only in Fig S12e; EMSA: 50 mM Tris-HCl pH 8, 10% glycerol, 5 mM DTT, 150 mM ammonium acetate, 1 uM tRNALys3, 20 min room temperature; 6% native PAGE at 4 C; details: protein: recombinant; tRNA fold, anticodon stem removed
hDus2 dsRBD R361A = target: T2, hDus2 dsRBD R361A (Homo sapiens, UniProt Q9NX74 339-451, R361A); experiment: EMSA; EMSA: 50 mM Tris-HCl pH 8, 10% glycerol, 5 mM DTT, 150 mM ammonium acetate, 1 uM tRNALys3, 20 min room temperature; 6% native PAGE at 4 C; details: protein: recombinant
T2 sequence: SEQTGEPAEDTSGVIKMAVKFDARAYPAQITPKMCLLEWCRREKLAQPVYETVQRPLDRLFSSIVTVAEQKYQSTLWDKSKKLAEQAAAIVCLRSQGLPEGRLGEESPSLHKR

hDus2 dsRBD WT [2] = target: T3, hDus2 dsRBD WT (Homo sapiens, UniProt Q9NX74 339-451); experiment: X-ray crystallography; 20 mM MgCl2 in reservoir; EMSA: 50 mM Tris-HCl pH 8, 10% glycerol, 5 mM DTT, 150 mM ammonium acetate, 1 uM tRNALys3, 20 min room temperature; 6% native PAGE at 4 C; details: protein: recombinant
T3 sequence: T2 sequence with A23R

hDus2 dsRBD R361A-R362A [3] = target: T4, hDus2 dsRBD R361A-R362A (Homo sapiens, UniProt Q9NX74 339-451, R361A;R362A); experiment: EMSA; EMSA: 50 mM Tris-HCl pH 8, 10% glycerol, 5 mM DTT, 150 mM ammonium acetate, 1 uM tRNALys3, 20 min room temperature; 6% native PAGE at 4 C; details: protein: recombinant
T4 sequence: T2 sequence with R24A

hDus2 dsRBD K371A = target: T5, hDus2 dsRBD K371A (Homo sapiens, UniProt Q9NX74 339-451, K371A); experiment: as above; details: protein: recombinant; label: 15N for tRNA-observed NMR; tRNA fold
T5 sequence: T2 sequence with A23R, K33A

hDus2 dsRBD R397A = target: T6, hDus2 dsRBD R397A (Homo sapiens, UniProt Q9NX74 339-451, R397A); experiment: as above; details: protein: recombinant; label: 15N for tRNA-observed NMR; tRNA fold
T6 sequence: T2 sequence with A23R, R59A

hDus2 dsRBD K420A = target: T7, hDus2 dsRBD K420A (Homo sapiens, UniProt Q9NX74 339-451, K420A); experiment: as above; details: protein: recombinant; label: 15N for tRNA-observed NMR; tRNA fold
T7 sequence: T2 sequence with A23R, K82A

hDus2 dsRBD K419A = target: T8, hDus2 dsRBD K419A (Homo sapiens, UniProt Q9NX74 339-451, K419A); experiment: as above; details: protein: recombinant; label: 15N for tRNA-observed NMR; tRNA fold
T8 sequence: T2 sequence with A23R, K81A

hDus2 full length [4] = target: T1, hDus2 full length; experiment: SEC-MALLS; 1:1 protein:RNA; EMSA: 50 mM Tris-HCl pH 8, 10% glycerol, 5 mM DTT, 150 mM ammonium acetate, 1 uM tRNALys3, 20 min room temperature; 6% native PAGE at 4 C; details: protein: recombinant; label: 15N for tRNA-observed NMR; tRNA fold
hDus2 dsRBD WT [5] = target: T3, hDus2 dsRBD WT; experiment: EMSA; apparent Kd shown only in histogram; EMSA: 50 mM Tris-HCl pH 8, 10% glycerol, 5 mM DTT, 150 mM ammonium acetate, 1 uM tRNALys3, 20 min room temperature; 6% native PAGE at 4 C; details: protein: recombinant; label: 15N for tRNA-observed NMR; tRNA fold
hDus2 dsRBD R361A-R362A [6] = target: T4, hDus2 dsRBD R361A-R362A; experiment: EMSA; EMSA: 50 mM Tris-HCl pH 8, 10% glycerol, 5 mM DTT, 150 mM ammonium acetate, 1 uM tRNALys3, 20 min room temperature; 6% native PAGE at 4 C; details: protein: recombinant; label: 15N for tRNA-observed NMR; tRNA fold
hDus2 dsRBD K419A-K420A = target: T9, hDus2 dsRBD K419A-K420A (Homo sapiens, UniProt Q9NX74 339-451, K419A;K420A); experiment: as above; details: protein: recombinant; label: 15N for tRNA-observed NMR; tRNA fold
T9 sequence: T2 sequence with A23R, K81A, K82A

hDus2 dsRBD R362A = target: T10, hDus2 dsRBD R362A (Homo sapiens, UniProt Q9NX74 339-451, R362A); experiment: EMSA; no impact of mutation; EMSA: 50 mM Tris-HCl pH 8, 10% glycerol, 5 mM DTT, 150 mM ammonium acetate, 1 uM tRNALys3, 20 min room temperature; 6% native PAGE at 4 C; details: protein: recombinant; label: 15N for tRNA-observed NMR; tRNA fold
T10 sequence: T2 sequence with A23R, R24A

hDus2 full length [7] = target: T1, hDus2 full length; experiment: EMSA; same affinity as for deltaACS; value only in Fig S12e; EMSA: 50 mM Tris-HCl pH 8, 10% glycerol, 5 mM DTT, 150 mM ammonium acetate, 1 uM tRNALys3, 20 min room temperature; 6% native PAGE at 4 C; details: protein: recombinant; tRNA fold

T1 sequence (Q9NX74 whole entry): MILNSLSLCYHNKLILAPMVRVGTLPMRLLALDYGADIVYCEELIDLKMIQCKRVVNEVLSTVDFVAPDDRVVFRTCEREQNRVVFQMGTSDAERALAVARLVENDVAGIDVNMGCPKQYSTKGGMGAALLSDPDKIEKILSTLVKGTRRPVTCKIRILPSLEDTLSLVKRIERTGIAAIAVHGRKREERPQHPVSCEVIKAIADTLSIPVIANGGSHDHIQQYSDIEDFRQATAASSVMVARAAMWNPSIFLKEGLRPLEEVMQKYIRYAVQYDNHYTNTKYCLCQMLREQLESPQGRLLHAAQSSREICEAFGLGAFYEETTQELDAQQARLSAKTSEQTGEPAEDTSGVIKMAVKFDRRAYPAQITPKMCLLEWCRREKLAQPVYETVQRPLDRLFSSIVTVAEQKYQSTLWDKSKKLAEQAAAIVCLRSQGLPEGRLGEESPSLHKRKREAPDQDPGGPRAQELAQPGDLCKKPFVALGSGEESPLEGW

B1: tRNAPhe-deltaACS transcript (structured_RNA)
RNA: GCGGAUUUAGCUCAGUUGGGAGAGCGCCGAAGGGAGGUCCUGUGUUCGAUCCACAGAAUUCGCACCA
hDus2 full length [1]
  binding result: binds

B2: 11-nt palindromic dsRNA (dsRNA)
RNA 1: CGAACUUCGCG
RNA 2: CGAACUUCGCG
hDus2 dsRBD R361A
  binding signal: ~3.7 fold lower affinity than same mutant for tRNA
hDus2 dsRBD WT [2]
  binding result: binds
hDus2 dsRBD R361A-R362A [3]
  binding signal: ~1 affinity relative to same mutant for tRNA (similar)

B3: human tRNALys3 (structured_RNA)
RNA: GCCCGGAUAGCUCAGUCGGUAGAGCAUCAGACUUUUAAUCUGAGGGUCCAGGGUUCAAGUCCCUGUUCGGGCGCCA
modifications: modified in vivo in E. coli (Psi39 mentioned)
hDus2 dsRBD K371A
  binding signal: ~8 fold lower affinity than WT
hDus2 dsRBD R397A
  binding signal: ~2 fold lower affinity than WT
hDus2 dsRBD K420A
  binding signal: > 4 fold lower affinity than WT
hDus2 dsRBD K419A
  binding signal: > 4 fold lower affinity than WT
hDus2 full length [4]
  binding result: binds
hDus2 dsRBD WT [5]
  binding result: binds
hDus2 dsRBD R361A-R362A [6]
  binding signal: ~6 fold lower affinity than WT
hDus2 dsRBD K419A-K420A
  binding signal: ~17 fold lower affinity than WT
hDus2 dsRBD R362A
  binding result: binds

B4: tRNAPhe transcript (structured_RNA)
RNA: GCGGAUUUAGCUCAGUUGGGAGAGCGCCAGACUGAAGAUCUGGAGGUCCUGUGUUCGAUCCACAGAAUUCGCACCA
hDus2 full length [7]
  binding result: binds

— article PMC6451096, “Molecular basis for transfer RNA recognition by the double-stranded RNA-binding domain of human dihydrouridine synthase 2”
